Data reported in patent publication US7250164.

Biological target: HmenB3 monoclonal antibody against Neisseria meningitidis serogroup B capsular polysaccharide
Assay: cell-based or functional assay

B1: Naid60 anti-idiotypic monoclonal antibody (Ab2) to HmenB3 (antibody, IgG1, V domains shown)
VH: EVKLVESGGGLVQPGGSLKLSCATSGFLFTDYYMFWVRQTPEKRLEWVAYISNGGGDTYYPDTVKGRFTISRDNAKNALYLQMSRLKSEDTAMYYCARHKGYYGYYYALDYWGQGT
VL: DIQLTQSPATLSVTPGDSVSLSCRASQSISNNLHWYQQKSHESPRLLIKYASQSISGIPSRFSGSGSGTDFTLSINSVETEDFGMYFCQQSNNWPLTFGAGTK
bacterial cell death rate (complement-mediated bactericidal activity of HmenB3 against NMGB) at 4 mg/L Naid60: 57.7% | bacterial cell death rate (complement-mediated bactericidal activity of HmenB3 against NMGB) at 40 mg/L Naid60: 0%
